Results from PMC9068512.

Biological target: modified calcium-permeable rat GluA2flip subunit with Q586 at the Q/R site (GluA2*), as the GluA2 portion of the GluA2–γ2 fusion (rat) (UniProt P19491)
Test: cryo-EM structure; purified GluA2–γ2 fusion in 150 mM NaCl, 20 mM Tris-HCl pH 8.0, 0.05% digitonin, supplemented with 20 µM Glu and 100 µM CTZ; seven LBD–TMD reconstructions (NNNN, GNNN, GNGN1, GNGN2, GGNN, GGGN, GGGG)

stoichiometry N: 4
Substance: modified calcium-permeable rat GluA2flip subunit with Q586 at the Q/R site (GluA2*), as the GluA2 portion of the GluA2–γ2 fusion (from UniProt P19491-2 22-883) (receptor)
